Among the data in PMC8872386 (Chemical Science, 2021) are Kd values, retold here.

Common to all, as to assay: fluorescence polarisation
A general note: In fluorescence polarisation assays a small probe gives low polarisation when free and higher when bound to something large.

Assay [1] addresses Sgo1 peptide (residues 446–466) bearing fluorescein (UniProt Q5FBB7).
Assay [2] deals with chemically synthesized full-length heterochromatin protein 1α without PTMs (21) (UniProt P45973 1-191).
The target of the next assay is recombinant HP1α (UniProt P45973 1-191).
Sequence of recombinant HP1α (P45973 whole entry): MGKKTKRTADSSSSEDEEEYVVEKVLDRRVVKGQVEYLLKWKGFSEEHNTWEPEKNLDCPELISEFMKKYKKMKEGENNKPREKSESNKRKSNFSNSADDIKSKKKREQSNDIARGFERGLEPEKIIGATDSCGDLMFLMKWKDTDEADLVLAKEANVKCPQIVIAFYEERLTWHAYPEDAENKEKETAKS

Ends that are not written are not given here.

Sequence of chemically synthesized full-length heterochromatin protein 1α without PTMs (21) (P45973 whole entry): as above

By Kd is commonly meant the constant that tells how readily two partners part at equilibrium. In turn, “chemically synthesized HP1α ubiquitinated at K154 (21f) (from UniProt P45973 1-191; P0CG48 1-76)” showed a Kd in assay [1] of 1870 nM.
Consider NVSLYPVVKIRRLSLSPKKNK (peptide, UniProt Q5FBB7 446-466, looked up, also: fluorescein, position not given here) [Sgo1 peptide (residues 446–466) bearing fluorescein], for which the Kd in assay [2] is 470 nM; with recombinant HP1α, 510 nM.
